Test: yeast display, Sf9 membrane polyspecificity reagent, FACS + sequencing; frameworks hold sequencing errors
Method in brief: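 Synthetic nanobody libraries on Saccharomyces cerevisiae BJ5465 were galactose-induced for 36–48 hours, stained 1 hour at 4 °C with 10% biotinylated, detergent-solubilized Sf9 membrane reagent and enriched on streptavidin microbeads. FACS then separated cells into low and high (top ~1%) gates by anti-HA (expression) and streptavidin (reagent binding) fluorescence. Genes were colony-PCR amplified, MiSeq 2 × 250 sequenced and CDR-length filtered. A clone's polyreactivity label is that of its gate of origin.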

Sequence	polyreactivity (PSR sort gate)
QVQIVESGGGLVQAAGSLRLSCAASGRTFGYYAMGWYREAPGKEREMVAAITSCGRNTYYADTVKGRFTISRDNAKNNVYLQMNRLKPEDTAVYYCNTVYHAYWGKCVNYWGQGTQVTVSS	high polyreactivity
QVQLVESGGGLVQAGGSLRLSCAASGGTFPPNTMGWSRQAPGKEREFVAASTWRGSSTYYADSVKGRFTISRDKAKNTVYLQMNSLKPEDTAVYYCAARRAYERMGYWGQGTQVTVSS	high polyreactivity
QVQLVESGGGLVQAGGSLRLSCAASGFIFFVNAMGWYRQAPGKEREFVATITGSGGSKYYADSVKGRFTISRDIAKNTVYLQMISLKPEDTAVYYCNAETYIVLRGKFPVEYDYWGQGTQVTVSS	low polyreactivity
QVQLVESGGGLVQAGGSLRLSCAASGSILVPNAMGWYRQAPRKERELVAGISANGGSTYYADSVKGRFTISRDNAKNTVYFQMNSLKPEDTAVYDCNARLYWDWYGDDYWGQGTQVTVSS	low polyreactivity
QVQLVESGGGLVQAGGSLRLSCAASGSTFYYNAMGWYRQAPGKERELVAGISGGGSTNYADSVKGRFTISRDNAKNTVYLQMNSLKPEDTAVYYCAARERYRGAIGYDYWGKGTQVTVSS	low polyreactivity
QVQLVESGGGLVQSGGSLRLTCAASGSIIRYYTMGWYRQAPGKERELVATITQSGGSTYYADSVKGRFTISRDNAKNTVYLQINSLKPEDTAVYYCAALVRRGFRLYGSWGQGTQVTVSS	high polyreactivity
QVQLVESGGGLVQAGGSLRLSCAASGFTFGDNAMGWYRQAPWKERELVADIDSDGSTYYADSVKGRFTISRDNAKNTFYLEMNSLKPEDNAVYYCAKDQYYSLGPYSFGFDYWGQGTQVNVSS	low polyreactivity
QVQLVESGGGLVQAGRSLRLTCAASGRIFTPYAMGWYRQAPGTERELVATITLSGGSTYYADSVKGRFTISRDYAKNTVYLQMNSLKPEDTAVYYCNKDTHLHVVDYRTGYDCWGQGTQVTVSS	low polyreactivity
QVQLVESGGGLVQAGGSLRLSCAASGSIYYTYAMGWYRPAPGKERELVAAISKRGGSTYYADSVKGRFTISRDNAKNSVYLQMNSLKPEDTAVYYCAARYNAPRGGGSDDYWGQGTQVTVSS	high polyreactivity
QVQLVESGGGLVQAGGSLRLSCAATGIIFRYAMGWYRQAPGKERELVAAIRKSDGSTYYADSVKGRFTISRDNAKNTVYLQMNSLKPEDTAVYYCATDIVYGNRKGFYYWGQGTQVTVSS	high polyreactivity
QVQLEESGGGVVQAGGSLRLTCAASASTSYNMGWYTQAPGKERELVAAISYPGGRTYYADSVKGRFTISRDNAKNTVYLQMTCLKPDDTGVYYCAKRIFVTFDSWGQGTQVTVSS	low polyreactivity
QVQLVESGGGLVQAGGSLRLSCAASGSTFGVYAMGWYRQAPGKERELVAAINYSGRTYYADSVKGRFTISRDNAKNTVYLQMNSLKPEDTAVYYCAARIIVDDVGTKYYYWGQGTQVTVSS	high polyreactivity
QVQILESGGGLVQAGGSLRLSCAASGFTFTGYALGWYSQAPGKERELVAAINARATSTYYADSVKGRFTISRDNAMNHVYLQIKSLIPEDTAVYFCAATFYRRYVDLGYWGQCTQVTVSS	high polyreactivity
QVQLVESGGGLVQAGGSLRLSCAASGLTIFVNAMGWYRQAPGKERELVATISGGGSTYYADSVKGRFTISRDNAKNTVYLQMNSLKPEDTAVYYCNAADVGGPWWYPYTYNYWGQGTQVTVSS	low polyreactivity
QVQLVESGGGLVQAGGSLRLSCAASGFTIYLYTMGWYRQAPGKERELVATISWSGGSTYYADSVKGRFTISRDNAKNNVYLHMNSLKPEDTAVYYCAKAYNGRYTWRYDYWGQGTQVTVSS	high polyreactivity
QVQLVESGGGLVQAGGSLRISCAASGFIFRPNAMGWYRQAPGKERELVAAITRDGDRTYYADSVKGRFTISRDNAKNTVYLQMNSLKPEDTAVYYCAADVIQWWTRYYTWEYDYWGQGTQVTVSS	low polyreactivity
QVQLVESGGGLVQAGGSLRLSCAASGSTFDSNAMGWYRQAPGKERELVAASDWSGGSTYYADSVKGRFTISRDNAKNTVYLQMNSLNPEDTGVYYGDADDSSINYGDFDYWGQGTQVTVTS	low polyreactivity
QVQLQESGGGLVQAGGSLRLSCAASGNIYPTVSMGWYRQAPGKEREFVVTIDPGSNTYYADSAKGRFTISRDNAKNTVYLQMNSPKPEDTAVYYCAVVFADWATYGYWGQGTQVTVSS	high polyreactivity
QVQLVESGGGLVQAGGSLRLSCAASGSTFWYNAMGWYRQAPGKERELVAAITQSGTRTYYADSVKGRFTISRDNAKNTVYLQMNSLKPEDTAVYYCAARGREWYYWGQGTQVTVSS	high polyreactivity
QVQLVESGGGLVQAGGSLRLSCAASGLTFGYYAMGWYRQAPGKEREFVASITWSGGTTYYADSVKGRFTISRDNAKNTVYLQMNSLKPEDTAVYYCAAQRSYAYEYWGQGTQVTVSS	high polyreactivity
QVQLVESGGGLVQAGGSLRLSCAASGLIFLYYAMGSYRQAPGKERELVAAIRTNYADSVKGRFTISRDNAKNTVSLQMNSLKPEDTAVYYCIAVSGDSGDYWGQGTQVTVSS	low polyreactivity
QVQLEESGGGLVQAGGSLRLSCAASGLIFVDNAMGGSRQATGKERALVASIDSGGSTNYADSVKGRFTISRDNAKNTFYLQMNSLKPEDTAVYYCSADWIYAPWYYQESVEYYYWGQGTQVTVSS	low polyreactivity

Sequence	polyreactivity (PSR sort gate)
QVQLVESGGGLVQAGGRLRLTCAASGRIFYRYAMGWYRQAPGKERELVASITRSGITHYADSVKGRFTISRDNAKNTVYLQMNSLKPEDTAVYYCNARRGSPAPYDYWGKGTQVTVSS	high polyreactivity
QVQLVESGGGLVQAGGSLRLSCASSGFTFKDYAMGWYRQAPGKERELVAAISYSGGSTYYADSVKGRFTLSRDNAKNTVYLQMNSLKPEDTAVYYCARYFRRSAIYTRPRMDYWGQGTQVTVSS	high polyreactivity
QVQLVESGGGLVQAGGSLRLSCAASGSIFGVYAMGWYRQAPGQERELVAVITWSDGGTYYADSVKGRFTISRDNAKNTVYLQMNSLKPEDTAVYYCAKERYDYSYDYWGQGTQVTVSS	high polyreactivity
QVQLVESGGGLVQAGGSLRLSCAASGSIFGRYAMGWYRQAPGKERELLAALTYRGGTTYYADSVKGRFTISRDNAKNTVYLQMNSLKPEDTAVYYCAAEGTWYYKYGYFAYYYWGQGTQVTVSS	low polyreactivity
QVQLVESGGGLVQAGGSLRLSCAASGLIFYTYAMGWYRQAPGKERELVAAISYDGTRTYYADSVKGRFTISRDNAKNTVYLQMNSLKPEDTAVYYCTAAYRRGDDYWGQGTQVTVSS	high polyreactivity
QVQLVESGGGLVPAGGSLRLSCAGSGFIFYKYAMGWYRQAPGKERELVAAITRGGSTNYADSVKGRFTSSRDKAKNTVYLQMNSLKPEDTAVYYCAAGNRYGVRQLYQIVTRYYWGQGTQVTVSS	high polyreactivity
QVQLVESGGGLVQAGGSLRLSCAASGIIFGRYAMGWYRQAPGKERELVAVISRSGGSTYYADSVKGRFTISRDNAKNTVYLQMNSLKPEDTAVYYCAARYTPTYNAGLDYWGQGTQVTVSS	high polyreactivity
QVQLVESGGGLVQAGGSLRLSCAASGLTFWLNAMGWYRQAPGKERELVAAIRYSGGGTYADSVKGRFTISRDNAKNTVYLQMNSLKPEDPAVYYCAALYNLGYPQFDYWGQGTQVTVSS	low polyreactivity
QVQLVESAGGLVQEGGSLSLSCAASGITLTIYVMGWYRQAPGKEREMVAAISTSGGSTYYADSVKGRFTISRDNAKNTVYLQMNSLKQEDTAVYYCNATPLRRYYGRYLMDYWGQGTQVTVSS	high polyreactivity
QVQLEESGGGLVQAGGSLRLSCDASGRTFDTNAMGWYIQAPGKERELVAVITARGGNTSYADSVKGRFTISRDNSKNTVYLQMNSLKPEDTAVYYCAAPADDTVHYQNYYWGQGTQVTVSS	low polyreactivity
QVQLVESGGGLVQAGGSLRLSCAASGRTFQEYAMGWYRQAPGKERELVADISDGGSTNYADSVKGRFTISRDNAKNTVYLQMYSLKPEDTAVYYCAADQYHGVGINFRSDYDYWGQGTQVTVSS	low polyreactivity
QVQLVESGGGFVQAGGSLRLSCAASGSIIKRNAMGWYRQAPGKERELVASISSGGSTKYADSVKGRFTLSRDNAKNTVYLQMNSLKPEDTAVYYCAKRSSQTRRAYDYWGQGTQVTVSS	low polyreactivity
QDQHVESVGGLVQAGGSLRFSCAASGSTFTRYAMGWYRQAPGKERELVAAIDGGGGSTSYADSVKGRFTISRDNAKNTVYLQMNSLKPEDTAVYYCAAPLDTSSSIFDYWGQGTQVTVSS	low polyreactivity
QVQLVESGGGLVQAGGSLRLSCAASGLTFHYYAMGWYRQAPGKERELVAAITATYYADSVKGRFTISRDNAKNTVYLQMNSLKPEDTAVYYCNAFLYPKQPLSPPDPTFEGGYWGQGTQVTVSS	low polyreactivity
QVQLVESGGGLVQAGGSLRLSCAASGFIFKSNAMGWDRQAPGKERELVAAISTSGGSTYYADSVKGRFTISRDNAKNTVYLQMNSLKPEDTAVYYCAKRPSRYYYRLDYWGQGTQVTVSS	high polyreactivity
QVQLEESGGGLVQAGGSLRLSCAASGRTFSVNPMRWYRQAPGKERELVAAISWSTGSTYYADSVKGRFTISRDNAKNTVYLQMNSLKPEDTAVYYCAKLYEYRRSRYRTYGYWGQGTQVTVSS	high polyreactivity
QVQLVESGGGLVQAGGSLRLSCAASGSILPGNAMGWSRQAPGKERELVAAITYSGGSTYADSVKGRFTISRDNAKNTVYLQINSLKPEDTAVYYCNADFIDPSVYDYNYWGQGTQVTVSS	low polyreactivity
QVQLVESGGGLVQAGGSLRLSCAASGSIFYHYAMGWYRQAPGKERELVAAISSGGSTSYADSVKGRFTISRDNAKNTVYLQMNSLKPEDTAVYYCNARRIRSRSWKYDYWGQGTQVTVSS	low polyreactivity
QVQLVESGGGLVQAGGSLRLSCAASGSTFDDNGMGWYRKAPGKERELVAGINSAGSTYYADSVKGRFTISRDNAKNTVYLQMNSLKPEDTAVYYCARRFLLKDRTKRAYGSWGQGTQVTVSS	low polyreactivity
QVQLVESVGGLVLAGASLRLSCAASGSTYAPNAMGWYRQAPGKERELVAVITSGDSTYYAVSVKGRFTISRDNAKNTVYLQMNSLKPEDTAVYYCASETYGTPGYYYWGQGTQVTVSS	low polyreactivity
QVQLVESGGGLVQAGGSLRLSCAASGSIFEGNGMGWYRQAPGKERELVAAITFRSGSTYYADSVKGRFTISRDNAKNTVYLLMNSLKPADTAVYYCAAHESYQVSAYDYWGQGSQVTVSS	low polyreactivity

— the nanobody polyreactivity screen of Harvey et al. (2022)
